The results in this text go back to publication PMC8016950 (2021).

The Kd is a measure of binding affinity in units of concentration. Read a low Kd as tighter binding.

The target of this test is full length human galectin-3 (hGal3), Cys173 mutated to Thr (human, UniProt P17931 1-250, Cys173 mutated to Thr). The experiment in a line: SPR. A general note: In SPR one partner is held on a chip, and binding of the other changes the refractive index at the surface.
Sequence of full length human galectin-3 (hGal3), Cys173 mutated to Thr (P17931 other isoform, or with tags, fused parts or gaps Cys173 mutated to Thr): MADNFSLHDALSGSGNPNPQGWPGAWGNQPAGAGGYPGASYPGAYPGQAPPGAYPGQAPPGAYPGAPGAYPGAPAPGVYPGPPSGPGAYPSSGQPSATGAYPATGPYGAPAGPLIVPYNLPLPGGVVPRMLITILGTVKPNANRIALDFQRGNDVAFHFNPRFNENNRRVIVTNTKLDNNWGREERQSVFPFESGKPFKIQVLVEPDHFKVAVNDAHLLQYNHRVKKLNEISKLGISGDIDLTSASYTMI

B1: GaletuzuFab-PAS200-Cys (Fab, V domains shown)
VH: QIQLVQSGAEVKKPGESLKISCKVSGYTFTDYAIHWVRQMPGKGLKWMGWINTYTGKPIYADDFKGQVIISLDKSINTAYLQWSSLKASDTAIYYCARGTMMASLDYWGQGTTVTVSS
VL: DVVMTQSPSSLSASVGDRVTITCKSSQSLVHSDGKTYLSWIQQKPGKAPKGLIYLVSKLDSGVPSRFSGSGSETDFTLTISSLQPEDSATYYCWQATHFPLTFGPGTKVDIR
For the molecule B1, the Kd worked out at 0.31 nM.
